The text below walks through data of patent publication US20030165887A1 (BURNHAM INSTITUTE, published 2003).

The chains are these.
B1: TUCAN fragment lacking the CARD (residues 1-337) (other)
chain: MMRQRQSHYCSVLFLSVNYLGGTFPGDICSEENQIVSSYASKVCFEIEEDYKNRQFLGPEGNVDVELIDKSTNRYSVWFPTAGWYLWSATGLGFLVRDEVTVTIAFGSWSQHLALDLQHHEQWLVGGPLFDVTAEPEEAVAEIHLPHFISLQGEVDVSWFLVAHFKNEGMVLEHPARVEPFYAVLESPSFSLMGILLRIASGTRLSIPITSNTLIYYHPHPEDIKFHLYLVPSDALLTKAIDDEEDRFHGVRLQTSPPMEPLNFGSSYIVSNSANLKVMPKELKLSYRSPGEIQHFSKFYAGQMKEPIQLEITEKRHGTLVWDTEVKPVDLQLVAAS
notes: also called ΔCARD; ΔCARD fragment of TUCAN

Assay [1] deals with T1, TUCAN (Tumor Up-regulated CARD-containing Antagonist of Caspase Nine), full-length (Homo sapiens (Human), UniProt Q9Y2G2 131-537).
T1 construct: Full-length TUCAN expressed by transient transfection in HEK293T cells; also called full-length TUCAN; CARD-X
T1 sequence: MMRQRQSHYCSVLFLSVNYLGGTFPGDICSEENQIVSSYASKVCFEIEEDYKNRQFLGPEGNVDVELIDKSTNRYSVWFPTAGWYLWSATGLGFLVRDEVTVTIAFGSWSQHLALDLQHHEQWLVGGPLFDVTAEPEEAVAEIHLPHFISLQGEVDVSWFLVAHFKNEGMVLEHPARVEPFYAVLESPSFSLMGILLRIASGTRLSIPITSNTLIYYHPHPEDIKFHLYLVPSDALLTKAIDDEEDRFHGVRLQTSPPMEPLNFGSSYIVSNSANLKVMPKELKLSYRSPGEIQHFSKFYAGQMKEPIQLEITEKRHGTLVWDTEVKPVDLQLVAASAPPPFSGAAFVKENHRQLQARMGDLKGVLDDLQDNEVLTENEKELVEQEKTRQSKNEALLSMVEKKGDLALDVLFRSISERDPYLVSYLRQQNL
Briefly: co-immunoprecipitation with HA- and Myc-tagged proteins.

Assay [2] deals with T1, TUCAN (Tumor Up-regulated …). Put plainly: co-immunoprecipitation, transfected HEK293T cells, SDS-PAGE/immunoblot. A general note: In western blotting, separated proteins are transferred to a membrane and probed.
Assay [3] addresses B1. Put plainly: co-immunoprecipitation, transfected cells, SDS-PAGE/immunoblot.

With B1, the binding result in assay [1] is on record as “no binding”.

B2: pro-Caspase-1 (enzyme, UniProt P29466 1-404, looked up)
chain: MADKVLKEKRKLFIRSMGEGTINGLLDELLQTRVLNKEEMEKVKRENATVMDKTRALIDSVIPKGAQACQICITYICEEDSYLAGTLGLSADQTSGNYLNMQDSQGVLSSFPAPQAVQDNPAMPTSSGSEGNVKLCSLEEAQRIWKQKSAEIYPIMDKSSRTRLALIICNEEFDSIPRRTGAEVDITGMTMLLQNLGYSVDVKKNLTASDMTTELEAFAHRPEHKTSDSTFLVFMSHGIREGICGKKHSEQVPDILQLNAIFNMLNTKNCPSLKDKPKVIIIQACRGDSPGVVWFKDSVGVSGNLSLPTTEEFEDDAIKKAHIEKDFIAFCSSTPDNVSWRHPTMGSVFIGRLIEHMQEYACSCDVEEIFRKVRFSFEQPDGRAQMPTTERVTLTRCFYLFPGH
As for B2, the binding result in assay [2] is “no binding”.

B3: Bcl10 (CIPER; huE10) (other, UniProt O95999 1-233, looked up)
chain: MEPTAPSLTEEDLTEVKKDALENLRVYLCEKIIAERHFDHLRAKKILSREDTEEISCRTSSRKRAGKLLDYLQENPKGLDTLVESIRREKTQNFLIQKITDEVLKLRNIKLEHLKGLKCSSCEPFPDGATNNLSRSNSDESNFSEKLRASTVMYHPEGESSTTPFFSTNSSLNLPVLEVGRTENTIFSSTTLPRPGDPGAPPLPPDLQLEEEGTCANSSEMFLPLRSRTVSRQ
As for B3, the binding result in assay [2] is on record as “no binding”.

B4: pro-caspase-9 inactive mutant (Cys287/Ala) (enzyme)
chain: MDEADRRLLRRCRLRLVEELQVDQLWDALLSSELFRPHMIEDIQRAGSGSRRDQARQLIIDLETRGSQALPLFISCLEDTGQDMLASFLRTNRQAAKLSKPTLENLTPVVLRPEIRKPEVLRPETPRPVDIGSGGFGDVGALESLRGNADLAYILSMEPCGHCLIINNVNFCRESGLRTRTGSNIDCEKLRRRFSSPHFMVEVKGDLTAKKMVLALLELAQQDHGALDCCVVVILSHGCQASHLQFPGAVYGTDGCPVSVEKIVNIFNGTSCPSLGGKPKLFFIQAAGGEQKDHGFEVASTSPEDESPGSNPEPDATPFQEGLRTFDQLDAISSLPTPSDIFVSYSTFPGFVSWRDPKSGSWYVETLDDIFEQWAHSEDLQSLLLRVANAVSVKGIYKQMPGCFNFLRKKLFFKTS
As to B4, the binding result in assay [3] is recorded as “no binding”.
